Measured values published in patent US6790831B2, “Systemic carnitine deficiency gene and use thereof” (Chugai Seiyaku Kabushiki Kaisha, priority 1998, dated 2004).
“Also recorded” adds a separate entry of the source.

Tested on: HEK293 cells
Assay: carnitine transporting activity assay of mouse OCTN2 expressed from plasmid DNA in HEK293 cells
Type: cell-based
Conditions: plasmid DNA expressing the protein introduced into HEK293 cells; Mock = cDNA-non-containing vector; FIG. 3
Method: Another embodiment of the therapeutic drug for systemic carnitine deficiency uses a compound that enhances the activity of the OCTN2 protein as the active ingredient. Such a compound can be screened as follows. For example, a plasmid expressing the OCTN2 protein is constructed, and this is introduced into HEK293 cells by the calcium phosphate method. Radiolabeled carnitine and a test compound are added to this transformant and the carnitine transporting activity into the cells is determined. A compound that can enhance the carnitine transporting activity is selected by comparing with the activity of the OCTN2 protein in the absence of the test compound. See Japanese Patent Application Hei 9-260972 and Hei 10-156660 for the detailed method.
Next, the effect this mutation has on the carnitine transporting activity was examined. Plasmid DNA expressing wild-type mouse OCTN2, and those expressing mutated OCTN2 were separately introduced into HEK293 cells, and then, carnitine transporting ability was measured similar to the assay of human OCTN2 described in Japanese Patent Application Hei 10-156660 (FIG. 3). […] However, both proteins were confirmed to be expressed at a similar amount by a western blotting using an antibody against the c-myc epitope sequence (NH2—EQKLISEEDL—COOH; SEQ ID NO:26) added to the C terminus (FIG. 4).

Molecule | carnitine transporting activity
wild-type mouse OCTN2: mouse OCTN2 protein, amino acid sequence SEQ ID NO:3, sodium-ion dependent carnitine transporter (protein) MRDYDEVTAFLGEWGPFQRLIFFLLSASIIPNGFNGMSIVFLAGTPEHRCLVPHTVNLSSAWRNHSIPLETKDGRQVPQKCRRYRLATIANFSELGLEPGRDVDLEQLEQESCLDGWEYDKDVFLSTIVTEWDLVCKDDWKAPLTTSLFFVGVLMGSFISGQLSDRFGRKNVLFLTMGMQTGFSFLQVFSVNFEMFTVLFVLVGMGQISNYVAAFVLGTEILSKSIRIIFATLGVCIFYAFGFMVLPLFAYFIRDWRMLLLALTVPGVLCGALWWFIPESPRWLISQGRIKEAEVIIRKAAKINGIVAPSTIFDPSELQDLNSTKPQLHHIYDLIRTRNIRVITIMSIILWLTISVGYFGLSLDTPNLHGDIYVNCFLLAAVEVPAYVLAWLLLQYLPRRYSISAALFLGGSVLLFMQLVPSELFYLSTALVMVGKFGITSAYSMVYVYTAELYPTVVRNMGVGVSSTASRLGSILSPYFVYLGAYDRFLPYILMGSLTILTAILTLFFPESFGVPLPDTIDQMLRVKGIKQWQIQSQTRMQKDGEESPTVLKSTAF | sodium-dependent carnitine transporting activity is seen; also recorded: shows a carnitine transporting activity similar to human OCTN2
mutated OCTN2: jvs mouse OCTN2 in which the 352nd leucine (CTG) is mutated to arginine (CGG) (protein, UniProt Q9Z0E8 1-557, looked up, variant L352R, full-length) MRDYDEVTAFLGEWGPFQRLIFFLLSASIIPNGFNGMSIVFLAGTPEHRCLVPHTVNLSSAWRNHSIPLETKDGRQVPQKCRRYRLATIANFSELGLEPGRDVDLEQLEQESCLDGWEYDKDVFLSTIVTEWDLVCKDDWKAPLTTSLFFVGVLMGSFISGQLSDRFGRKNVLFLTMGMQTGFSFLQVFSVNFEMFTVLFVLVGMGQISNYVAAFVLGTEILSKSIRIIFATLGVCIFYAFGFMVLPLFAYFIRDWRMLLLALTVPGVLCGALWWFIPESPRWLISQGRIKEAEVIIRKAAKINGIVAPSTIFDPSELQDLNSTKPQLHHIYDLIRTRNIRVITIMSIILWRTISVGYFGLSLDTPNLHGDIYVNCFLLAAVEVPAYVLAWLLLQYLPRRYSISAALFLGGSVLLFMQLVPSELFYLSTALVMVGKFGITSAYSMVYVYTAELYPTVVRNMGVGVSSTASRLGSILSPYFVYLGAYDRFLPYILMGSLTILTAILTLFFPESFGVPLPDTIDQMLRVKGIKQWQIQSQTRMQKDGEESPTVLKSTAF | absolutely no activity
